For this data set, the system named is green fluorescent protein (GFP) carrying an ssrA tag at the C-terminus.

On to unfoldase ClpX, for which the “controlled translocation through the opened ClpP-nanopore (ionic current traces, ATP present)” value was “ClpX-assisted transport of GFP across opened ClpP-nanopore in the presence of ATP”.

The record behind these values is patent US20240288416.
